Laboratory results taken from US20210337838A1, “RECOMBINANT EXPRESSION OF FUMONISIN AMINE OXIDASE” (priority 2018, published 2021).
Read-outs that look alike come from different tables or passages of the source.

Experiments:
[1] = Ethanol tolerance of deamination activity, reverse phase LC/MS
[2] = 1 μM enzyme, room temperature, 16 h, corn material in water
Description: Following incubation, 700 μls of extraction solution (78% acetonitrile, 2% ethyl acetate) was added to each sample and incubated at 37° C. with shaking for 45 minutes. This mixture was then centrifuged at 20,000×g and 400 μls of the cleared supernatant was mixed with an equal volume of 50% methanol. Samples were then analyzed for fumonisin contamination by reverse phase HPLC-MS as previously described.

[3] = Effect of temperature on fumonisin deamination activity, reverse-phase LC/MS; type: biochemical; conditions: 6 nM enzyme
Description: (§1) Activity was measured via reverse-phase LC/MS analysis. […] All proteins were scanned at a concentration of 0.3 mg/ml in buffer containing 20 mM Tris-HCl (pH 7.4), 50 mM NaCl and 0.75 mM DTT. Thermal denaturation was monitored at […] with a temperature scan ranging from 20 to 95° C., increasing by 1° C. per minute with data collection every 30 seconds. Baseline corrected data were converted from millidegrees to mean residue ellipticity, and thermal denaturation curves were produced by nonlinear regression in Graphpad Prism.

[4] = NaCl dependence of fumonisin deamination activity, Amplex red; type: biochemical
Description: (§2) 98 μL of this solution was added to 2 μL of a stock of FB2 in a microfuge tube (2.5 mM) and incubated at 30° C. for 30 mins. At the end of the incubation time, 20 μL of the reaction was diluted with 80 μL of 50 mM HEPES pH 7.0, 150 mM NaCl and 100 μL of this was added in triplicate to wells of a 96-well microplate. 100 μL of Amplex™ red reaction buffer consisting of 50 mM HEPES pH 7.0, 150 mM NaCl, 200 μM Amplex™ red, 2 U/ml horseradish peroxidase was immediately added to each well and absorbance was measured at 571 nm. Rates were calculated based on an H2O2 standard curve and the incubation time taking into account the dilution factors. […] 100 μL of protein sample was added to wells in triplicate in a 96-well microplate. 100 μL of Amplex™ red reaction buffer consisting of 50 mM HEPES pH 7.0, 200 μM Amplex™ red, 2 U/ml horseradish peroxidase and 50 μM FB2 was then added to each well and absorbance was monitored at 571 nm every 10 mins for 1 hr. A standard curve consisting of 0-10 μM H2O2 was included to determine the absorbance for every pmol of H2O2 generated by the reaction.

[5] = FB2 deamination by purified recombinant AnFAO, reverse-phase LC/MS; type: biochemical; conditions: 6 nM enzyme, 1 μM FB2, 0.1 mg/ml catalase, 1 h at 37° C.
Description: In particular, all MS data were collected with a Q-Exactive™ Quadrupole Orbitrap™ mass spectrometer (Thermo Scientific, MA, USA) coupled to an Agilent 1290 ultra-high-performance liquid chromatography (UHPLC) system. Fumonisins were resolved on a Zorbax™ Eclipse Plus Rapid Resolution High Definition (RRHD) C18 column (2.1×50 mm, 1.8 μm; Agilent Technologies, CA, USA), maintained at 35° C. The mobile phase was comprised of water with 0.1% formic acid (A), and acetonitrile with 0.1% formic acid (B) (Optima grade, Fisher Scientific, NJ, USA). The gradient consisted of 0% B for 0.5 min before increasing to 100% over 3 min, held at 100% for 2.5 min and reduced to 0% over 0.5 min. The fumonisins were detected in negative ionization mode using the following electrospray conditions: capillary voltage, 4.0 kV; capillary temperature, 400° C.; sheath gas, 17.00 units; auxiliary gas, 8.00 units; probe heater temperature, 450° C.; S Lens RF level, 45.00. […] The five highest intensity ions from the full scan (excluding isotopes) were sequentially selected using a 1.2 m/z isolation window and analyzed at a resolution of 17,500; AGC target, 1×10^5; max IT, 64 ms; normalized collision energy (NCE) 30; threshold intensity 9.1×10^4; and dynamic exclusion of 1.5 s. Fumonisins were detected by accurate mass (±5 ppm) and retention time (±0.1 min) and verified by MS/MS. […]

[6] = Description: as §2
[7] = Circular dichroism thermal denaturation; type: physicochemical; conditions: 0.3 mg/ml, 20 mM Tris-HCl (pH 7.4), 50 mM NaCl, 0.75 mM DTT, monitored at 222, 20 to 95° C.
Description: as §1

[8] = Fumonisin deamination activity of AnFAO with or without excess FAD; type: biochemical; conditions: enzyme dialyzed in 20 mM MES (pH 6), 150 mM NaCl with additional 50 μM FAD
Source text: The whole mass of AnFAO following denaturation and LC-MS analysis was 51,320.70 Da, which matches the predicted mass of the apo-enzyme (51,320.97 Da) as shown in FIG. 12D. […] AnFAO also lacked the requisite Histidine or Tyrosine residues for covalent 6α-linkages to the FAD backbone, as observed in other covalent flavoproteins (Heuts et al., 2009).

[9] = Amplex red assay of RID+AO enzyme; type: biochemical; conditions: 80 nM enzyme, 25 μM FB1, 50 mM HEPES (pH 7), 150 mM NaCl

B1: AnFAO_15309 (protein)
chain: MSVSNDPTTKLYDAVIVGAGLSGLQAAHSIQAAGFSVCILEATDRMGGKTLTVKSSEKGYNDLGAAWVNDTNQTEIFKLHQRYGLDGVVQYTCGDDILESGEGVIRKIPYGLPLTGLPKKLLDILRIESSRLDLDDPTSFPGATEVDNLTFRDFCVEKTGSEDVIHITDAISTALLGLNSNELSALYMLYYFKSGSGIDNLLSDERDGAQYLRTRQGTQTIARKMADELTQSDIFLGMPVTSINQTDADAHCVVQTLDGSSFRCRRVIVSIPTTLYRSVSFHPPLPHAKQVLSDHTIMGYYSKVIFIFKEPWWRDAGLTGIVNCAGGPITFTRDTSVPTDDQWSITCFMVGSRGRAWSKLSKDDRYSQVWEQFRRCFEEFVENIPEPVNTLEMEWSKEPYFLGAPCPAMIPGLLTTAGSDLAAPHGKVHFIGTETSTVWRGYMEGAIRAGQRGGAEVVTALQED
modifications: codon-optimized; AnFAO_15309 codon optimized for Saccharomyces cerevisiae
- activity remaining at 5% EtOH ([1]; 10 nM enzyme, 1 μM FB2, 30 minutes at 37° C., 5% EtOH): 71%
- activity remaining at 10% EtOH ([1]; 10 nM enzyme, 1 μM FB2, 30 minutes at 37° C., 10% EtOH): 43%
- activity remaining at 20% EtOH ([1]; 10 nM enzyme, 1 μM FB2, 30 minutes at 37° C., 20% EtOH): 12%
- deamination activity at 30% EtOH ([1]; 30% EtOH): Negligible amounts
- deamination activity at 40% EtOH ([1]; 40% EtOH): Negligible amounts
- intact fumonisins remaining after treatment [2]: no intact fumonisins remained
- intact fumonisins remaining after treatment ([2]; listed as AnFAO): No intact fumonisin remained
- optimal temperature of FB2 deamination ([3]; 2 μM FB2): 50 °C
- of maximal activity at 21° C. ([3]; 2 μM FB2, 21° C.): ca. 35%
- of maximal activity at 60° C. ([3]; 2 μM FB2, 60° C.): 52%
- activity at 95° C. ([3]; 2 μM FB2, 95° C.): No activity
- of maximum activity at 0 mM NaCl ([4]; 0 mM NaCl): 70%
- NaCl concentration of optimal activity ([4]; 50 mM HEPES pH 7.0, FB2): 50 mM
- of maximum activity at 1 M NaCl ([4]; 1 M NaCl): 66%
- conversion of FB2 into FPy2 [5]: Full conversion
- optimal pH of activity ([6]; 300 nM enzyme, FB2, 30° C., 30 mins): 6
- activity remaining at pH 3.5 ([6]; Citrate pH 3.5): ca. 20%
- activity remaining at pH 9.0 ([6]; Pyrophosphate pH 9): ca. 30%
- melting temperature [7]: 71 °C
- change in fumonisin deamination activity with additional FAD [8]: No difference

B2: RID+AO: GST-tagged 597 amino acid A. niger enzyme with N-terminal Reactive Intermediate Deaminase domain and C-terminal amine oxidase domain (protein)
chain: MAPAPVLATSAYYAPGVVSSASKYLHVSGQPGTIEGTAPADYNSQIHLALVNLHRVLAATGATPRDVVKLTLYIVDYDPNNRLHTRPLQTWLAGHKPAITLVPVPQLAVPDWKFEIEATVAVPDSIPASLSLPSPTETTDVLVIGAGLSGLMAAETTLQSGHSCIVLEGRDRVGGKTWTCPLPSGTGVVDLGAAWINDTNQSMMYELARRAGADLIEQNTTGNCLLQREDGAITAFPYGQTPCITPQIVKEIEAIRDTAEQDCQSFSTSRPQSPALDSLSFLAYLHSRNASPIAAANASVWTRAMLGQEPQDISALYFLNYCKSGGGLLQMRSDRKHGAQYLRVRQGTQIFAKTLAESLPTDTIRFGQRVVGITQVQKGVNYVQTESGLVVKARKVICSVPTPVLKTIKFEPQLPAAKQLLVDSFRYGYYTKVMLSFRTAWWADRGFCGLAQSFVGPASIYRDTSSPEDGKWVLTAFLAGDAGRNWSALGSQRERELALLEQLGAIYGDKDLPKREFVEALGHEWSTEELSGWGCPCPALPPGVLTLAGDALREPFRDVHFVGTETAEEWKGYMEGAVRSGKRGAAEAVKGLTRSQL
modifications: GST tag; Aspergillus niger
- activity towards fumonisins [9]: no activity
